# Residue numbers refer to the chain shown, from its start.
# T1: CLDN6 endogenously expressed by human cancer cell lines (ARK2, OVCA429) (human, UniProt P56747 1-220)
# T1 construct: Untagged endogenous protein; also called Endogenous CLDN6+
# T1 sequence: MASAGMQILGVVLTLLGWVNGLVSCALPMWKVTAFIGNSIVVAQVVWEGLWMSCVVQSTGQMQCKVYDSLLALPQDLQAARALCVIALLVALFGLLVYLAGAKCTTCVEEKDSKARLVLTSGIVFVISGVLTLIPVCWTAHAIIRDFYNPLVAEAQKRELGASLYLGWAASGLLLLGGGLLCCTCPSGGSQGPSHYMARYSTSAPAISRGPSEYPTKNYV
# T2: human CLDN6 fused to GFP, expressed on engineered HEK293T cells (HEK293T-CLDN6-mGFP) (human, UniProt P56747 1-220)
# T2 construct: It calls residues 1-21 a signal peptide; also called Claudin-6; HEK293T-CLDN6-mGFP Artificial CLDN6+; not shown: mGFP tag
# T2 sequence: T1 sequence
# B1: AB4-6 (antibody, V domains shown)
# VH: QVQLVQSGAEVKKPGASVKMSCKASGYTFTSYTMHWIRQAPGQGLEWIGYINPSSTYTHYAQKFQGRATLTADKSTSTAYMELSSLRSEDTAVYYCSRGELGGFAYWGQGTLVTVSS
# VL: DVVMTQSPLSLPVTLGQPASISCRSSQSLVHSDGNTYLNWYQQRPGQSPRLLIYKVSNRFSGVPDRFSGSGSGTDFTLKISRVEAEDVGVYYCSQSTHVPYTFGQGTKLEIK
# notes: also called Humanized AB 4-6
# B2: AB4-9 (antibody, V domains shown)
# VH: B1 VH with A61I, Q62K, Q65K, G66D, K74T
# VL: B1 VL
# notes: Humanized; also called Humanized AB 4-9
# B3: AB4-10 (antibody, V domains shown)
# VH: B1 VH with L45Q, A61I, Q62K, Q65K, G66D, K74T
# VL: B1 VL
# notes: Humanized; also called Humanized AB 4-10
# B4: AB4-11 (antibody, V domains shown)
# VH: B1 VH with A61I, Q62K, Q65K, G66D
# VL: B1 VL
# notes: Humanized; also called Humanized AB 4-11
# B5: AB4-8 (antibody, V domains shown)
# VH: QVQLVQSGAEVKKPGASVKVSCKASGYTFTSYTMHWVRQAPGQGLEWMGYINPSSTYTHYIKKFKDRVTMTADTSTSTVYMELSSLRSEDTAVYYCSRGELGGFAYWGQGTLVTVSS
# VL: B1 VL
# notes: Humanized; also called Humanized AB 4-8
# B6: AB4-12 (antibody, V domains shown)
# VH: B1 VH with L45Q, A61I, Q62K, Q65K, G66D
# VL: B1 VL
# notes: Humanized; also called Humanized AB 4-12
# B7: AB4-7 (antibody, V domains shown)
# VH: B1 VH with L45Q
# VL: B1 VL
# notes: also called Humanized AB 4-7
# B8: AB3-7 (antibody, V domains shown)
# VH: EVQLLESGGGLVQPGGSMRLSCAASGFTFSNYWMNWVRQAPGKGLEWVAQIRLKSDNYATHYADSVKGRFTISRDDSKNTVYLQMNSLRAEDTGVYYCNDGPPSGSWGQGTLLTVSS
# VL: DIQMTQSPSSLSASVGDRVTITCRISENIYSYLAWYQQKPGKAPKLLVYNAKILVEGVPSRFSGSGSGTDFTLTISSLQPEDFGTYYCQHHYTVPWTFGQGTKLEIK
# notes: also called Humanized AB 3-7
# B9: AB3-chim (antibody, V domains shown)
# VH: EVKLEESGGGLVQPGGSMKLSCVASGFTFSNYWMNWVRQSPEKGLEWVAQIRLKSDNYATHYAESVKGRFTISRDDSKRSVYLQMNNLRAEDTGTYYCNDGPPSGCWGQGTTLIVSS
# VL: DIQMTQSPASLSASVGETVTITCRISENIYSYLAWYQQKQGKSPQLLVYNAKILVEGVPSRFSGSGSGTQFSLKINSLQPEDFGNYYCQHHYTVPWTFGGGTKLEIK
# notes: 'chim' is the pre-humanized form (parental variable regions); also called pre-humanized (chimeric) form of AB3
# B10: AB1-7 (antibody, V domains shown)
# VH: QVQLVQSGAEVKKPGASVKMSCKASGYTFTTYTMHWVRQAPGQGLEWIGFINPSSGYTDYAQKFQGRVTLTADTSTSTVYMELSSLRSEDTAVYYCANGDYYVAYWGQGTLVTVSS
# VL: DIQLTQSPSSLSASVGDRVTMTCTASSSVSSTYFHWYQQKPGKAPKLLIYSTSNLASGVPSRFSGSGSGTDYTLTISSMQPEDAATYYCHQYHRSPLTFGQGTKLEIK
# notes: Humanized; also called Humanized AB 1-7
# B11: AB1-8 (antibody, V domains shown)
# VH: B10 VH
# VL: B10 VL with L48W
# notes: Humanized; also called Humanized AB 1-8
# B12: AB1-4 (antibody, V domains shown)
# VH: B10 VH with M20V, I48M, L70M
# VL: B10 VL
# notes: also called Humanized AB 1-4
# B13: AB1-3 (antibody, V domains shown)
# VH: B10 VH with M20V, I48M, L70M
# VL: B10 VL with L4M, M21I, M79L, A84F
# notes: also called Humanized AB 1-3
# B14: AB1-5 (antibody, V domains shown)
# VH: B10 VH with M20V, I48M, L70M
# VL: B10 VL with L48W
# notes: also called Humanized AB 1-5
# B15: AB1-11 (antibody, V domains shown)
# VH: B10 VH with T74K
# VL: B10 VL with L48W
# notes: Humanized; also called Humanized AB 1-11
# B16: AB1-6 (antibody, V domains shown)
# VH: B10 VH
# VL: B10 VL with L4M, M21I, M79L, A84F
# notes: also called Humanized AB 1-6
# B17: AB1-Chim (antibody, V domains shown)
# VH: QVQLQQSAAELARPGASVKMSCKASGYTFTTYTMHWVKQRPGQGLEWIGFINPSSGYTDYNQKFKDRTTLTADKSSSTVYMQLSSLTSEDSAVYYCANGDYYVAYWGQGTLVTVSA
# VL: QIVLTQSPAIMSASLGERVTMTCTASSSVSSTYFHWYQQKPGSSPKLWIYSTSNLASGVPRRFSGSASGTSYSLTISSMEAEDAATYYCHQYHRSPLTFGAGTKLELK
# notes: 'chim' is the pre-humanized form (parental variable regions); also called pre-humanized (chimeric) form of AB1
# Biological target: T1, CLDN6 endogenously expressed by human …
# Assay: FACS, 0.3 µg Ab, ARK2 cells
# Protocol: (§1) FACS assays were also carried out to determine relative antigen binding strengths of the humanized antibodies (at either 1.5 μg or 0.3 μg) for binding to CLDN6 as expressed by the indicated cancer cell lines. 2nd Ab only was used as a negative control.
row,FACS fluorescence,Binder
1,3300,B1
2,3060,B2
3,7210,B3
4,6390,B4
5,3120,B5
6,9690,B6
7,2770,B7
8,36000,B8
9,17100,B9
10,4440,B10
11,5810,B11
12,3640,B12
13,2830,B13
14,7490,B14
15,53900,B15
16,2820,B16
17,58800,B17

# Biological target: T1, CLDN6 endogenously expressed by human …
# Assay: FACS, 1.5 µg Ab, ARK2 cells
# Protocol: as §1
row,FACS fluorescence,Binder
1,9840,B1
2,7790,B2
3,20200,B3
4,9170,B4
5,7310,B5
6,24200,B6
7,7560,B7
8,90400,B8
9,29100,B9
10,11200,B10
11,17600,B11
12,10000,B12
13,10800,B13
14,22400,B14
15,97700,B15
16,7740,B16
17,51900,B17

# Biological target: T2, human CLDN6 fused to GFP, expressed on …
# Assay: FACS, 0.3 µg Ab, 293T clone with human CLDN6
# Method in brief: (§2)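 Using a direct-binding flow cytometry method essentially as in the source, humanized antibodies were tested on engineered 293T clones expressing human CLDN6. Labelled antibody (Alexa Fluor 647 NHS ester) was added at 0.3 µg or 1.5 µg to EDTA-detached cells, which were kept on ice in the dark for 30 min, washed and read in channel FL4H of a BD Accuri C6. Fluorescence indicates relative antigen binding strength.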
row,FACS fluorescence,Binder
1,10800,B1
2,37200,B2
3,50800,B3
4,37800,B4
5,49300,B5
6,71100,B6
7,19200,B7
8,106000,B8
9,267000,B9
10,79200,B10
11,98800,B11
12,102000,B12
13,142000,B13
14,138000,B14
15,64900,B15
16,120000,B16
17,312000,B17

# Biological target: T1, CLDN6 endogenously expressed by human …
# Assay: FACS, 1.5 µg Ab, OVCA429 cells
row,FACS fluorescence,Binder
1,138000,B9
2,44700,B10
3,66000,B11
4,34600,B12
5,27500,B13
6,54300,B14
7,29900,B16
8,177000,B17

# Biological target: T2, human CLDN6 fused to GFP, expressed on …
# Assay: FACS, 1.5 µg Ab, 293T clone with human CLDN6
# Method in brief: as §2
row,FACS fluorescence,Binder
1,29200,B1
2,56900,B2
3,77200,B3
4,61200,B4
5,77600,B5
6,86200,B6
7,33300,B7
8,169000,B8
9,459000,B9
10,207000,B10
11,210000,B11
12,197000,B12
13,142000,B13
14,213000,B14
15,113000,B15
16,227000,B16
17,364000,B17

# Reference: US20250333501A1 (University of California, published 2025)
